Publication PMC3615136 (Molecular cell, 2013)
Positions count from the first letter of the chain named. Names may count otherwise. Blank lines part the entries; values can stand above or below the binder they belong to.

Legend:
[1] = biological target: T1, wild-type FlaI, Sulfolobus acidocaldarius (Sulfolobus acidocaldarius), Q4J9L0; test: crystal structure; conditions: remark: other sources report otherwise
T1 chain: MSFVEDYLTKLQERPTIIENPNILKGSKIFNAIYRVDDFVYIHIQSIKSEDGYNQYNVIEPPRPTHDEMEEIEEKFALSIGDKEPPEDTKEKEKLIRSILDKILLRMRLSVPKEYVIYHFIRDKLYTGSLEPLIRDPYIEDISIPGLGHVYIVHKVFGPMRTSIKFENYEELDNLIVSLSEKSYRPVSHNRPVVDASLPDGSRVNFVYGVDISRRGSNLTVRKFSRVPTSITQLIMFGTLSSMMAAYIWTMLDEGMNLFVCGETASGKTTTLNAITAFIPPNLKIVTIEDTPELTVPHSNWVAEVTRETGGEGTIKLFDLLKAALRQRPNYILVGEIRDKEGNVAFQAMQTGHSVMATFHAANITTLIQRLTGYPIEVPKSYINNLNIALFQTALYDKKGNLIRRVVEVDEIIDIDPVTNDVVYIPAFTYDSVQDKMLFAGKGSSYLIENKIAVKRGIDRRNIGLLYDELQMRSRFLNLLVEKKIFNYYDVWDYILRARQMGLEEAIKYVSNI

crystal structure = biological target: the molecule itself; test: crystal structure
SEC = biological target: the molecule itself; test: SEC

- stoichiometry N [1]: 6
B1: wild-type FlaI, Sulfolobus acidocaldarius, Q4J9L0 1-513 (enzyme)
chain: T1 chain

B2: FlaI Walker B mutant (FlaI^E336A), full-length, Sulfolobus acidocaldarius (enzyme, UniProt Q4J9L0 1-513, looked up)
chain: T1 chain with E336A
- stoichiometry N (crystal structure): 6

B3: FlaI^R307K/E336A interface mutant in the Walker B background (enzyme, Sulfolobus acidocaldarius, UniProt Q4J9L0 1-513, looked up)
chain: T1 chain with R307K, E336A
- binding result (SEC): binds

B4: FlaI^N190E/E336A interface mutant in the Walker B background (enzyme, Sulfolobus acidocaldarius, UniProt Q4J9L0 1-513, looked up)
chain: T1 chain with N190E, E336A
- binding result (SEC): binds
